Experimental data from article PMC11436757, “BRCA2 stabilises RAD51 and DMC1 nucleoprotein filaments through a conserved interaction mode” (Nature Communications, 2024).
Where a chain is given by its changes, count along the chain named. Names and notes keep the numbering of the source. Where two headings read alike, the source gives them in different places. No end group written: not given here.

T1: DMC1 ΔN (Homo sapiens, UniProt Q14565)
T1 construct: DMC1 ΔN (83-340) were cloned into pHAT4; His6 (TEV-cleavable) (N, cleaved yes); made in house; host or cells: E. coli BL21 (DE3)
T1 sequence (Q14565 83-340): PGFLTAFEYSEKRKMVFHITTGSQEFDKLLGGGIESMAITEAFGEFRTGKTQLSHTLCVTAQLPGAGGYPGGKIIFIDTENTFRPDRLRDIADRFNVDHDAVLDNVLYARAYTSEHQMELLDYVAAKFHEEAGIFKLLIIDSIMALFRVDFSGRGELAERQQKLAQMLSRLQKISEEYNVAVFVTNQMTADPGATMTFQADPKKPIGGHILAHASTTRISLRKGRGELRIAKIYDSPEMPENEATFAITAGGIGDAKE

T2: DMC1 ΔN (amino-acids 83-340), purified (human, UniProt Q14565 83-340, amine reactive fluorescent dye (Monolith Protein Labelling Kit BLUE-NHS) in the MST only)
T2 construct: human DMC1 with its N-terminal domain deleted, amino acids 83-340; Octameric ring in the crystal and in solution; also called DMC1 core; structural core of human DMC1; source: E. coli BL21 (DE3), purified (Ni-NTA, HiTrap Q, TEV cleavage, HiTrap Q, SEC)
T2 sequence (looked up): T1 sequence (Q14565 83-340)

B1: BRCA2 Ex14 (amino acids 2387-2420), purified (peptide, UniProt P51587 2387-2420, looked up)
chain: ATRNEKMRHLITTGRPTKVFVPPFKTKSHFHRVE
notes: human BRCA2 exon 14 PhePP region, amino acids 2387-2420; source: E. coli BL21 (DE3), purified (Ni-NTA, HiTrap Q, TEV cleavage, HiTrap SP, SEC)
B2: DMC1 ΔN loop mutant, purified (domain or fragment, human, UniProt Q14565 83-340, looked up)
chain: PGFLTAFEYSEKRKMVFHITTGSQEFDKLLGGGIESMAITEAFGEFRTGKTQLSHTLCVTAQLPIDRGGGEGKIIFIDTENTFRPDRLRDIADRFGLSGSDVLDNVLYARAYTSEHQMELLDYVAAKFHEEAGIFKLLIIDSIMALFRVDFSGRGELAERQQKLAQMLSRLQKISEEYNVAVFVTNQMTADPGATMTFQADPKKPIGGHILAHASTTRISLRKGRGELRIAKIYDSPEMPENEATFAITAGGIGDAKE
modifications: amine reactive fluorescent dye (Monolith Protein Labelling Kit BLUE-NHS) in the MST only
notes: The purification of the mutant is not described; probably as for DMC1 ΔN (His6 tag cleaved)
B3: His-DMC1 ΔN V179E mutant (domain or fragment, human, UniProt Q14565 83-340, looked up)
chain: T1 sequence (Q14565 83-340) with V97E
notes: human DMC1 ΔN (83-340) with V179E, cloned into pHAT4; His tag named on the protein in the pull-down; also called His6-DMC1 mutant; source: E. coli, in lysate (pull-down); purified for SEC-MALS (purification not described)
B4: BRCA2 Ex14-Tr peptide (amino acids 2401-2414) (peptide)
peptide: RPTKVFVPPFKTKS
notes: human BRCA2 Ex14 truncated, amino acids 2401-2414; also called truncated Ex14; source: synthetic peptide (Severn Biotech)

Tests used:
[1] = biological target: T1, DMC1 ΔN; assay: Microscale thermophoresis (MST), BRCA2 peptides and DMC1 ΔN; assay type: binding; details: MST from initial fluorescence; labelled DMC1 ΔN 150 nM; 10 mM HEPES pH 8.0, 150 mM NaCl, 0.05 % Tween-20; ~22 °C; mean, n = 3 independent experiments
Procedure: DMC1 ΔN and DMC1 ΔN loop mutant were labelled in 10 mM HEPES pH 8.0, 150 mM NaCl with an amine reactive fluorescent dye (MonolithTM Protein Labelling Kit BLUE-NHS, Nanotemper GmbH). A serial dilution of titrant (peptide) was prepared in 10 mM HEPES pH 8.0, 150 mM NaCl, 0.05 % Tween-20. The concentration of labelled DMC1 ΔN or DMC1 ΔN loop mutant were constant at 150 nM and the concentration of the interacting peptide was titrated in 1:1 dilutions starting from 750 µM. An equal volume (10 µl) of the serial dilution and of the diluted labelled DMC1 were mixed and loaded in glass capillaries (MonolithTM NT.115 MST Premium Coated Capillaries, Nanotemper GmbH). The initial fluorescence and the thermophoretic mobility were measured on a Monolith NT.115 system (NanoTemper Technologies). The excitation power was 45 % and MST power was 60 % at room temperature (~22 °C). Laser on and off times were set at 5 and 30 seconds, respectively. Data analysis was performed with NT Affinity Analysis software.
As a change in initial fluorescence was detected, SDS denaturation (SD) tests were performed according to the manufacturer’s instructions to determine whether these changes were ligand-induced and whether the data could therefore be used to derive affinity measurements. Briefly, 7 µl of the samples containing the three highest and three lowest concentrations of peptide were mixed with 7 µl of denaturation buffer (4 % SDS, 40 mM DTT). After incubating each for 5 minutes at 95 °C to denature the proteins and subject to brief centrifugation, the samples were loaded onto Premium Coated Capillaries and their initial fluorescence measurements recorded. […] Initial fluorescence readings were used to derive binding affinities.

[2] = biological target: T2, DMC1 ΔN (amino-acids 83-340), purified; assay: MST; DMC1 ΔN or loop mutant labelled with BLUE-NHS dye, constant at 150 nM; peptide titrated in 1:1 dilutions starting from 750 µM; 10 mM HEPES pH 8.0, 150 mM NaCl, 0.05 % Tween-20; room temperature (~22 °C); affinities derived from initial fluorescence
[3] = biological target: the molecule itself; assay: SEC-MALS; Superdex 200 Increase 10/300 GL, 20 mM Tris pH 8.0, 150 mM KCl, 2 mM DTT; the loop mutant also by SEC-SAXS

Molecule	Kd ([2]; both partners purified) [µM]	stoichiometry N [3]	further results
RPTKVFVPPFKTKS [Ex14-Tr]			Kd [1]: 35.7 µM
BRCA2 Ex27 peptide (amino acids 3270-3315) (from UniProt P51587 3270-3315)			Kd [2]: > 96 µM
B1	~30		
B2		8	
B3		8	
B4	36		
